Test: soluble on expression in E. coli; label from the status in PepcDB or PDB records

Sequence | soluble on expression in E. coli
MGSSHHHHHHGGTGENLYFQGGSGRPAGTLASFLERCSARKRGRGCVVLTGAGCSTESGIPDYRGPNGQYHRADFVLLTFQKFMRDDNEKRRYWARSMLGYSTMCGASCNAAHMALQAFTKSGAVAHILTQNVDGLHHLATYGGVGDAEEEHYYKYTTSDAPLKELHGNIHNVICTSCGFFMPRARLQRELRERNPGFYEQYGADVSRTRPDGDYSAPTEAVNAMHLVMCPRCNGFFKPHVVLFGENVPKPIVEATMSLVRDKASCLLCLGTSLQVYSAYRYVLQANQLGIPVAIVNAGTTRGDAIADLKLDVESVGSVLAETAHEMLGVPASMFFRRKTIQL | not soluble
MGSSHHHHHHGKTIFVIVPTNEEQVAFLEALAKQDELNFDWQNPPTEPGQPVVILIPSDMVEWFLEMLKAKGIPFTVYVEEGGSENLYFQGGGGGGGSEVEASPRVAMIVLEGFSGTVFHALMESGVHMPNIAHMLSSQKGVWAECATSSQSSCARAVVVENDTSGEVYVSAAAAMTSLFSGVSPREHQVYNGSLESMSMYANTSKMNPSIAKRVKDAGMKVSVVGTSHAINSLSIALGSCSRPGVLDMECAASREELLRASVDEYSGSVQLDCLASSSCNMDTRKMTSPTDPQQCSSGQAEAQFTRHLNSIFGGLAYSTQTQEAAMQNTVADNLDNSLFVFHFDALAVRAASTYLPDFQYNASSKEYVAQVYLLDALVGQVISYVRDRARSQKENWLIVGVSNHGGDDKPYAIPNPVSTSENTIAFFMATYTNNMKRFVTLAPLQRPVTQLDVLPTVLTWLNVVPFDAETSAVTAGTNTTAASPAVEARVMERRHFEGLVQGICSSGASLKNCAL | not soluble
MGSSHHHHHHGKTIFVIVPTNEEQVAFLEALAKQDELNFDWQNPPTEPGQPVVILIPSDMVEWFLEMLKAKGIPFTVYVEEGGSENLYFQGGGGGGSRPYGATFIAWGLAFALRAWRCLPRERVHMCRAAHRLADAKMRQRGVGKVLMPYTGASRLMPVASYSRGNRLPSCSSTEATTRCHGFLAIGSRSPTPTHQARVDMGDNDITANSSGKTSGAAAGSAPSSCDLFLSASALESSAQFLALTHVASRQEPSSSITDRNAASVTPSGSRSASGRRAPRRSHEPFTCMSRACALDFTTLSEHGSEVPSVEPASLSAMQPTTSSSSRMHGCTGAAMTTVSLPQTPVVSGAVQSPAWLPAELARTFSDSKTPLSVCSQPSKVGPSYSQMDTLSPPTYEEAVLSSSRSSSSPRIAVLSTTMRSQRLSPAVARDGAP | soluble
MGSSHHHHHHGSLPPREDAARVARFVTHVSDWGALATISTLEAVRGRPFADVLSLSDGPPGAGSGVPYFYLSPLQLSVSNLQENPYATLTMTLAQTNFCKKHGFDPQSPLCVHIMLSGTVTKVNETEMDIAKHSLFIRHPEMKTWPSSHNWFFAKLNITNIWVLDYFGGPKIVTPEEYYNVTVQ | soluble
MGSSHHHHHHMQPEHVKERYKNFLNQHVGPDMSVQRCNSEIGPNNRKITLSGTDNGCKPVNTFILANKRLIKTVCGRAGSPQGNMVRSNQPFPVVKCVLNNGERHPYCEYRGTRSTRYIVLKCEEGWPVHYHEDEVNVG | soluble
MGSSHHHHHHSQDPNSAAPAAEAPLSHVQQALAELAKPKDDPTRKHVCVQVAPAVRVAIAETLGLAPGATTPKQLAEGLRRLGFDEVFDTLFGADLTIMEEGSELLHRLTEHLEAHPHSDEPLPMFTSCCPGWIAMLEKSYPDLIPYVSSCKSPQMMLAAMVKSYLAEKKGIAPKDMVMVSIMPCTRKQSEADRDWFCVDADPTLRQLDHVITTVELGNIFKERGINLAELPEGEWDNPMGVGSGAGVLFGTTGGVMEAALRTAYELFTGTPLPRLSLSEVRGMDGIKETNITMVPAPGSKFEELLKHRAAARAEAAAHGTPGPLAWDGGAGFTSEDGRGGITLRVAVANGLGNAKKLITKMQAGEAKYDFVEIMACPAGCVGGGGQPRSTDKAITQKRQAALYNLDEKSTLRRSHENPSIRELYDTYLGEPLGHKAHELLHTHYVAGGVEEKDEKK | soluble
MGSSHHHHHHSSGLEVLFQGPAMATKKVHIISHSHWDREWYMAYEQHHMRLINLIDDLLEVFQTDPDFHSFHLDGQTIILDDYLKVRPEREPEIRQAIASGKLRIGPFYILQDDFLTSSESNVRNMLIGKEDCDRWGASVPLGYFPDTFGNMGQTPQLMLKAGLQAAAFGRGIRPTGFNNQVDTSEKYSSQFSEISWQGPDNSRILGLLFANWYSNGNEIPTTEAEARLFWDKKLADAERFASTKHLLMMNGCDHQPVQLDVTKAIALANQLYPDYEFVHSCFEDYLADLADDLPENLSTVQGEITSQETDGWYTLANTASARIYLKQANTRVSRQLENITEPLAAMAYEVTSTYPHDQLRYAWKTLMQNHPHDSICGCSVDSVHREMMTRFEKAYEVGHYLAKEAAKQIADAIDTRDFPMDSQPFVLFNTSGHSKTSVAELSLTWKKYHFGQRFPKEVYQEAQEYLARLSQSFQIIDTSGQVRPEAEILGTSIAFDYDLPKRSFREPYFAIKVRLRLPITLPAMSWKTLALKLGNETTPSETVSLYDDSNQCLENGFLKVMIQTDGRLTITDKQSGLIYQDLLRFEDCGDIGNEYISRQPNHDQPFYADQGTIKLNIISNTAQVAELEIQQTFAIPISADKLLQAEMEAVIDITERQARRSQEKAELTLTTLIRMEKNNPRLQFTTRFDNQMTNHRLRVLFPTHLKTDHHLADSIFETVKRPNHPDATFWKNPSNPQHQECFVSLFDGENGVTIGNYGLNEYEILPDTNTIAITLLRSVGEMGDWGYFPTPEAQCLGKHSLSYSFESITKQTQFASYWRAQEGQVPVITTQTNQHEGTLAAEYSYLTGTNDQVALTAFKRRLADNALITRSYNLSNDKTCDFSLSLPNYNAKVTNLLEKDSKQSTPSQLGKAEILTLAWKKQ | soluble
MGSSHHHHHHSSGLEVLFQGPLHMGIKYQKIGDVVIVKKELSEDEIREIVKRTKCKAILLYTTQITGEFRTPHVKILYGKETETIHKEYGCLFKLDVAKIMWSQGNIEERKRMAFISNENEVVVDMFAGIGYFTIPLAKYSKPKLVYAIEKNPTAYHYLCENIKLNKLNNVIPILADNRDVELKDVADRVIMGYVHKTHKFLDKTFEFLKDRGVIHYHETVAEKIMYERPIERLKFYAEKNGYKLIDYEVRKIKKYAPGVWHVVVDAKFERI | soluble
MGSSHHHHHHSSGLVPRGGSHMSAASSIFDFEVLDADHKPYNLVQHKGSPLLIYNVASKCGYTKGGYETATTLYNKYKSQGFTVLAFPCNQFGGQEPGNEEEIKEFVCTKFKAEFPIMAKINVNGENAHPLYEYMKKTKPGILKTKAIKWNFTSFLIDRDGVPVERFSPGASVKDIEKKLIPLLESTQSA | soluble
MGSSHHHHHHSSGLVPRGSHASMAAEMDWDKTVGAAEDVRRIFEHIPAILVGLEGPDHRFVAVNAAYRGFSPLLDTVGQPAREVYPELEGQQIYEMLDRVYQTGEPQSGSEWRLQTDYDGSGVEERYFDFVVTPRRRADGSIEGVQLIVDDVTSRVRARQAAEARVEELSERYRNVRDSATVMQQ | soluble
MGSSHHHHHHSSGLVPRGSHMDFYKLDEKLKELKRKRVDVSIKSRKLADREIQEVSANRKPRVYSMEDVNDADESVGDTESPEKEKAFHYTVQEYDAWERRHPQGKTGQSQRGGISYDQLAKLSYEKTLRNLATQTQNSSKQDSSADEEDNKNVPKKGRIGKVQKDTKTGKITIADDDKLVNKLAVSLQSESKKRYEARKRQMQNAKTLYGVESFINDKNKQFNEKLSRESKGSE | soluble
MGSSHHHHHHSSGLVPRGSHMFANDATFEIKKCDLHRLEEGPPVTTVLTREDGLKYYRMMQTVRRMELKADQLYKQKIIRGFCHLCDGQEACCVGLEAGINPTDHLITAYRAHGFTFTRGLSVREILAELTGRKGGCAKGKGGSMHMYAKNFYGGNGIVGAQVPLGAGIALACKYNGKDEVCLTLYGDGAANQGQIFEAYNMAALWKLPCIFICENNRYGMGTSVERAAASTDYYKRGDFIPGLRVDGMDILCVREATRFAAAYCRSGKGPILMELQTYRYHGHSMSDPGVSYRTREEIQEVRSKSDPIMLLKDRMVNSNLASVEELKEIDVEVRKEIEDAAQFATADPEPPLEELGYHIYSSDPPFEVRGANQWIKFKSVS | soluble
MGSSHHHHHHSSGLVPRGSHMKKRQLGTSDLHVSELGFGCMSLGTDETKARRIMDEVLELGINYLDTADLYNQGLNEQFVGKALKGRRQDIILATKVGNRFEQGKEGWWWDPSKAYIKEAVKDSLRRLQTDYIDLYQLHGGTIDDPIDETIEAFEELKQEGVIRYYGISSIRPNVIKEYLKRSNIVSIMMQYSILDRRPEEWFPLIQEHGVSVVVRGPVARGLLSRRPLPEGEGYLNYRYDELKLLRESLPTDRPLHELALQYCLAHDVVATVAAGASSIDQVKANVQAVEATPLTAEERQHIQKLAKAAVYEQHRE | soluble
MGSSHHHHHHSSGLVPRGSHMLDIMSDDGDITAVSSGNRDIAQVVTENNKNYLVLYASQTGTAEGFAKAFSKELVAKFNLNVMCADVENYDFESLNDVPVIVSIFISTYGEGDFPDGAVNFEDFICNAEAGALSNLRYNMFGLGNSTYEFFNGAAKKAEKHLSAAGAIRLGKLGEADDGAGTTDEDYMAWKDSILEVLKDELHLDEQEAKFTSQFQYTVLNEITDSMSLGEPSAHYLPSHQLNRNADGIQLGPFDLSQPYIAPIVKSRELFSSNDRNCIHSEFDLSGSNIKYSTGDHLAVWPSNPLEKVEQFLSIFNLDPETIFDLKPLDPTVKVPFPTPTTIGAAIKHYLEITGPVSRQLFSSLIQFAPNADVKEKLTLLSKDKDQFAVEITSKYFNIADALKYLSDGAKWDTVPMQFLVESVPQMTPRYYSISSSSLSEKQTVHVTSIVENFPNPELPDAPPVVGVTTNLLRNIQLAQNNVNIAETNLPVHYDLNGPRKLFANYKLPVHVRRSNFRLPSNPSTPVIMIGPGTGVAPFRGFIRERVAFLESQKKGGNNVSLGKHILFYGSRNTDDFLYQDEWPEYAKKLDGSFEMVVAHSRLPNTKKVYVQDKLKDYEDQVFEMINNGAFIYVCGDAKGMAKGVSTALVGILSRGKSITTDEATELIKMLKTSGRYQEDVW | soluble
MGSSHHHHHHSSGLVPRGSHMSQSTYSLEQLADFLKVEFQGNGATLLSGVEEIEEAKTAHITFLDNEKYAKHLKSSEAGAIIISRTQFQKYRDLNKNFLITSESPSLVFQKCLELFITPVDSGFPGIHPTAVIHPTAIIEDHVCIEPYAVVCQHAHVGSACHIGSGSVIGAYSTVGEHSYIHPRVVIRERVSIGKRVIIQPGAVIGSCGFGYVTSAFGQHKHLKHLGKVIIEDDVEIGANTTIDRGRFKHSVVREGSKIDNLVQIAHQVEVGQHSMIVAQAGIAGSTKIGNHVIIGGQAGITGHICIADHVIMMAQTGVTKSITSPGIYGGAPARPYQEIHRQVAKVRNLPRLEERIAALEKLVQKLEALSEQH | soluble
MGSSHHHHHHSSGLVPRGSHMSRVTVLQSQLPAYNRLKTPYESELIATVKKLTTPGKGLLAADESIGSCTKRFQPIGLSNTEEHRRQYRALMLEAEGFEQYISGVILHDETVGQKASNGQTFPEYLTARGVVPGIKTDMGLCPLLEGAEGEQMTEGLDGYVKRASAYYKKGCRFCKWRNVYKIQNGTVSESAVRFNAETLARYAILSQMSGLVPIVEPEVMIDGKHDIDTCQRVSEHVWREVVAALQRHGVIWEGCLLKPNMVVPGAESGKTAAPEQVAHYTVMTLARTMPAMLPGVMFLSGGLSEVQASEYLNAINNSPLPRPYFLSFSYARALQSSALKAWGGKESGLAAGRRAFLHRARMNSMAQLGKYKRSDDDASSSSLYVKGNTY | soluble
MGSSHHHHHHSSGLVPRGSHMTAEEMKATESGAQSAPLPMEGVDISPKQDEGVLKVIKREGTGTEMPMIGDRVFVHYTGWLLDGTKFDSSLDRKDKFSFDLGKGEVIKAWDIAIATMKVGEVCHITCKPEYAYGSAGSPPKIPPNATLVFEVELFEFKGEDLTEEEDGGIIRRIQTRGEGYAKPNEGAIVEVALEGYYKDKLFDQRELRFEIGEGENLDLPYGLERAIQRMEKGEHSIVYLKPSYAFGSVGKEKFQIPPNAELKYELHLKSFEKAKESWE | soluble

— the DeepSol protein solubility set
